167 variants from the RNAGym collection of RNA variant scans (doi:10.7554/elife.80360) can be followed below.

Sequences and labels used below:
B1: HDV Ribozyme (parent)
chain: GGCCGGCAUGGUCCCAGCCUCCUCGCUGGCGCCGGCUGGGCAACAUUCCGAGGGGACCGUCCCCUCGGUAAUGGCGAAUGGGACCCA

The variants in the data set derive from B1. In words: self-cleavage, relative activity (ratio to wild type); higher = more cleavage; co-transcriptional.
Take C36A G55C: the self-cleavage was determined as 0.196. The result for C64U G73A reads 0.81. Under G40C G80A stands 0.0723; under C58G G67U, 0.892; under C30U C41A, 0.543. Take A45C G82A: the self-cleavage amounted to 0.208. Under C19U A70U stands 0.169; under G10A C13A, 0.0941. Under G35A C41A stands 0.562; under A8C U47C, 0.665. The result for C24U C61G reads 0.745; that for C48U A78G, 0.522; that for A8U C86G, 0.554. As for A16G C86A, the self-cleavage was determined as 0.76. Turning to G74U G80U, the self-cleavage came out at 0.0956.

Consider G38C A42G, for which the self-cleavage was found to be 0.0449. The result for C7A C49G reads 0.291; that for G11U U20G, 0.0791; that for U47G C64G, 0.485. Under G29A A87U stands 0.155; under C13U G53A, 0.77; under G28U G80U, 0.1. Under G38A A71U stands 0.102.

As for C19A G76A, the self-cleavage is 0.185. Under C49G C84U stands 0.429; under C33G G82A, 0; under G35A C75G, 0.218.

Turning to G68U A77C, the self-cleavage was found to be 0.232.

Take G53A G68C: the self-cleavage worked out at 0.604. The result for A51U G59C reads 0.755. Under U12G G59U stands 0.973. The result for G1A G40A reads 0.119. As for G54C A71G, the self-cleavage stood at 0.646. The result for G1U C66G reads 0.211; that for G54U G82A, 0.277; that for C22G C66A, 0.0692. The result for C36A C84U reads 0.163; that for C3G G17C, 0.0941. Take G34A G81C: the self-cleavage amounted to 0.0733. The result for A45C G54A reads 0.597; that for U12G C13A, 0.415.

Regarding G1U C49G, the self-cleavage was found to be 0.181. The result for C18U U69C reads 0.878; that for G6U G34C, 0.0405; that for C22G G35A, 0.0615. Under U12G C33G stands 0. A8G A16C: the self-cleavage was determined as 0.639.

Turning to C7G A77U, the self-cleavage turned out to be 0.0875. The result for C62A A71C reads 0.85; that for C7A U37C, 0.719; that for G68A A83G, 0.522. Under G11U U47A stands 0.397; under G74U C85U, 0.614. The result for U23C A45U reads 0.675.

For the variant A8U G39C, the self-cleavage was 0.166.

As for C4G C62A, the self-cleavage was found to be 0.446. The result for G5A G40C reads 0.136; that for G35C G68A, 0.17; that for U37G G54U, 0.135. The result for C57U G74U reads 0.548; that for G55A C62G, 0.686. The result for G34U G38C reads 0.194. Consider C4U G68A, for which the self-cleavage worked out at 0.604. For the variant A16C C49G, the self-cleavage turned out to be 0.923. Under C24A C26A stands 0.743; under C58G C85U, 0.956. The result for G39A G76A reads 0.421; that for C32G G68C, 0; that for G10U A71G, 0.799. With U23C G67A, the self-cleavage turned out to be 0.927. For the variant G52C C58G, the self-cleavage came out at 1.13.

Take A70G C86G: the self-cleavage came to 1.03. The result for C7G U37C reads 0.399. The result for C26U C66G reads 0.861. Under G2U A42C stands 0.0297; under G31C C48G, 0.227. With C61A A77C, the self-cleavage is 0.527. For G55C C57G, the self-cleavage was determined as 1.14. The result for A43G U69C reads 0.302; that for A42U A51C, 0.665; that for U27G A87C, 0.869. As for C18U C24U, the self-cleavage came to 0.141. The result for C41A A56G reads 1.15; that for U9C G73U, 0.383; that for G52A G67U, 0.843. For the variant G6C G53U, the self-cleavage came to 0.138.

For C36G U65G, the self-cleavage was determined as 0.244. Under G38U G50A stands 0.218; under G54U C62G, 1.08; under C14G C85U, 1.31. Turning to C21G C24G, the self-cleavage amounted to 0.0504. The result for C22U C61G reads 0.545; that for U60C G73A, 0.815. The result for G25U G55U reads 0.151; that for G10U G39A, 0.199; that for C33A G74C, 0.106. The result for C33A G74U reads 0.0755.

On to C18U C32G, for which the self-cleavage turned out to be 0.032. The result for C14A A51C reads 0.959; that for C57U C61A, 1.32; that for C58G G74U, 0.511. The result for G38C C41U reads 1.08.

Regarding U20A G29A, the self-cleavage was 0.0773. Consider G1C A42G, for which the self-cleavage turned out to be 0. As to C30A A77G, the self-cleavage is 0.224. With C13G G59A, the self-cleavage came out at 0.148. The result for C33A U60C reads 0.415; that for A51C U72A, 0.609; that for G38C G53A, 0.313. Turning to C41G C49U, the self-cleavage came out at 0.608. The result for C41G C62U reads 0.815. The result for U69G C84G reads 0.639; that for A70G A71C, 0.712; that for G11C C85G, 0.831.

In the case of C26G C33A, the self-cleavage was found to be 0.298. Under A16U G55A stands 0.784; under C7G G73A, 0.0639; under U20A G74C, 0.0396. Under C15U G76U stands 1.2; under C18A A45C, 0.208; under C19U C41A, 0.0804. The result for A56U G59U reads 1.08; that for G55C U72A, 0.743. On to G1A C66G, for which the self-cleavage amounted to 0.308. Under U72C U79G stands 0.133. For C4U G29C, the self-cleavage was 0.0396. The result for C7G C13U reads 0.158; that for A56C G74C, 0.312. The result for U20C U79A reads 0; that for C13G U23A, 0.151.

Regarding C19G U20C, the self-cleavage came to 0.0692. Under C7A G68U stands 0.623; under G1U U37C, 0.415; under A42C G68A, 0.253. Under C18A C86A stands 0.106. With G35U G54A, the self-cleavage amounted to 0.499.

C13A A16U: the self-cleavage was found to be 0.536. The result for A16G A77C reads 0; that for G2C C15G, 0; that for G28U C33G, 0.212. Under G54C A83C stands 0.332; under C7G U20A, 0. The result for G39A C62G reads 0.129. For the variant G25C G29U, the self-cleavage was determined as 0.0773. The result for U12A G81A reads 0.0554. For U79G C86A, the self-cleavage was found to be 0.675. The result for G5U U27G reads 0.665; that for U9C G35A, 0.394; that for C15G G59A, 0.831.

Take G39U A87C: the self-cleavage is 0.646. Under G35C C75A stands 0.225; under G5U G53U, 0.268; under G68U A78C, 0.161.

For the variant G73U C75U, the self-cleavage was 0.111. The result for G39U G74A reads 0.669; that for A45U U69G, 0.855. The result for C41A G67A reads 0.914; that for G35U G67C, 0.41; that for G31C U72C, 0.262. The result for G6A U60G reads 0.365. On to G1C G25C, for which the self-cleavage came to 0. The result for G11C G34C reads 0.0852; that for G1A U60C, 0.166; that for C61A C62U, 1.01. Under C7G A42G stands 0.111; under U27G G39C, 0.0723; under C13G C21G, 0.0723.
